Test results taken from article PMC7168832.

Legend:
[1] = target: prohibitin isoform 1 (human (endogenous in SH-SY5Y, U-87 MG, CHME-3)) (UniProt P35232)
[2] = target: prohibitin-2 isoform 1 (human (endogenous in SH-SY5Y, U-87 MG, CHME-3)) (UniProt Q99623)
[3] = target: prohibitin isoform 1 (human (endogenous in SH-SY5Y, U-87 MG, CHME-3)) (UniProt P35232); remark: listed apart in the source
[4] = target: prohibitin-2 isoform 1 (human (endogenous in SH-SY5Y, U-87 MG, CHME-3)) (UniProt Q99623); remark: listed apart in the source
[5] = target: prohibitin-2 isoform 1 (human (endogenous in SH-SY5Y, U-87 MG, CHME-3)) (UniProt Q99623); remark: listed apart in the source

UniProt P35232, sequence (P35232 whole entry, canonical isoform): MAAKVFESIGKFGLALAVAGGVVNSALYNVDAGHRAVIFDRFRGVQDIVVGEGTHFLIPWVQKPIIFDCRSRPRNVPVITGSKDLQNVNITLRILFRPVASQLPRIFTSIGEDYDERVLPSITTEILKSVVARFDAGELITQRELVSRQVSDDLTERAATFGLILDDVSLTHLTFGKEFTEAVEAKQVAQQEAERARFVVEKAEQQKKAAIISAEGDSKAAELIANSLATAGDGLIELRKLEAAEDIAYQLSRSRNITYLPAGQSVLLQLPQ
UniProt Q99623, sequence (Q99623 whole entry, canonical isoform): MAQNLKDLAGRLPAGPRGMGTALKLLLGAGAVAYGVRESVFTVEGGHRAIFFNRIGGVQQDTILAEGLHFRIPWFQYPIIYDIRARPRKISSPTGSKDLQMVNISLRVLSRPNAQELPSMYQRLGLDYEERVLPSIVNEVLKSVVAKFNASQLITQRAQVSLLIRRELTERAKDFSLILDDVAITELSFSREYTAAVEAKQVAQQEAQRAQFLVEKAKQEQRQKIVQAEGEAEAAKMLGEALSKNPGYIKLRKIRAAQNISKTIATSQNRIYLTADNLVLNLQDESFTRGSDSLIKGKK

DENV-3 (16562), purified virus (complex)
% fluorescent (DENV-3 antigen) positive SH-SY5Y cells by IFA 30 h PI, cells pre-incubated with anti-PHB1 antibody, 1 to 2 μg (17 to 10%; virus control 40%, anti-actin control 35%) [1]: 17% | % fluorescent (DENV-3 antigen) positive SH-SY5Y cells by IFA 30 h PI, cells pre-incubated with anti-PHB2 antibody, 1 to 2 μg (11 to 6%; virus control 40%, anti-actin control 35%) [2]: 11% | reduction in DENV-3 plaques, CHME-3 cells pre-incubated with PHB1 antibody [3]: 73.3% | reduction in DENV-3 plaques, SH-SY5Y cells pre-incubated with anti-PHB1 antibody [3]: 55% | reduction in DENV-3 plaques, CHME-3 cells pre-incubated with PHB2 antibody [4]: 82.2% | reduction in DENV-3 plaques, SH-SY5Y cells pre-incubated with anti-PHB2 antibody [4]: 75% | entry assay: reduction in virus titre, CHME-3 cells with bound DENV-3 (MOI 100) treated with PHB2 polyclonal antibody at 37 °C for 1.5 h [5]: 82%
